Molecular target: amphotropic retrovirus receptor, endogenous on human 293 cells (human) (UniProt Q08357)
Test: cell-based or functional assay

UniProt Q08357, sequence (Q08357 whole entry): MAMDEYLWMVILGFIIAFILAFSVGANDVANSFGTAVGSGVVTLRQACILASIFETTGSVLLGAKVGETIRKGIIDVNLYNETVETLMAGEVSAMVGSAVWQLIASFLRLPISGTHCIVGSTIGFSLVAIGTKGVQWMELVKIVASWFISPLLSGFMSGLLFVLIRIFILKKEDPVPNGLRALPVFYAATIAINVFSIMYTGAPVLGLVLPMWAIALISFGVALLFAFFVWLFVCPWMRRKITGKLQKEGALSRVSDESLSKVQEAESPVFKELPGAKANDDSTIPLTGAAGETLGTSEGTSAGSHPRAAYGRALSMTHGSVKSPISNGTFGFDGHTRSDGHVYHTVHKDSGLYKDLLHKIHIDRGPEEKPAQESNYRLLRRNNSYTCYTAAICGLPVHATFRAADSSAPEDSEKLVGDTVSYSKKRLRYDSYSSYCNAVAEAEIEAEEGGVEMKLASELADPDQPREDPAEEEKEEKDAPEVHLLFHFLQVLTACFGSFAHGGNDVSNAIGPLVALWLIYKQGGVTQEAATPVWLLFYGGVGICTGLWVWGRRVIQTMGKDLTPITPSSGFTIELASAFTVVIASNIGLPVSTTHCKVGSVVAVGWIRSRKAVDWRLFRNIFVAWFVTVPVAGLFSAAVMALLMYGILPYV

ampho/eco+Q227R/D243Y fusion envelope protein: residues 1-208 of amphotropic 4070A envelope protein fused between Serine 6 and Proline 7 of MoMLV mutant envelope protein Q227R/D243Y
delivery of the lacZ gene (infectious titer) to human 293 cells expressing the amphotropic receptor but not the ecotropic receptor: 1000 fold

Source: patent US6448390
